According to patent US6391305B1, “Conjugates useful in the treatment of prostate cancer” (priority 1999, dated 2002):
Several values for one entry are separate records, joined by “and”; a condition that tells them apart may be missing. Equal entries are not always repeated. Marks after values point to notes of the source that are not given here. Non-standard residues stand in square brackets, D forms with d. Residues, ends and D or L forms follow the SMILES beside them. Primed or numbered codes have the meaning given here. No end group written: not given here. *: point of attachment. PEG(1) = polyethylene glycol containing substituent with 1 ethyleneoxy subunit; X5 = (2R,3S)‑2,3,4‑trihydroxybutanoyl, O=C([C@H](O)[C@@H](O)CO)*; Decanoyl(3,6,9-trioxa) = COCCOCCOCC(=O)*; Glyceroyl(2S) = O=C([C@@H](O)CO)*; hArg = N=C(N)NCCCC[C@H](N)C(=O)O; 3Pal = N[C@@H](Cc1cccnc1)C(=O)O; Cha = N[C@@H](CC1CCCCC1)C(=O)O; Chg = N[C@H](C(=O)O)C1CCCCC1; Nle = CCCC[C@H](N)C(=O)O; PEG(15) = PEG(15): -; PEG(16) = PEG(16): -; PEG(17) = PEG(17): -; Glycolyl = O=C(CO)*

Molecular target: T1, enzymatically active free PSA (Homo sapiens, UniProt P07288)
T1 construct: required for 50% cleavage of the noted oligopeptides with enzymatically active free PSA
T1 sequence (P07288 25-261): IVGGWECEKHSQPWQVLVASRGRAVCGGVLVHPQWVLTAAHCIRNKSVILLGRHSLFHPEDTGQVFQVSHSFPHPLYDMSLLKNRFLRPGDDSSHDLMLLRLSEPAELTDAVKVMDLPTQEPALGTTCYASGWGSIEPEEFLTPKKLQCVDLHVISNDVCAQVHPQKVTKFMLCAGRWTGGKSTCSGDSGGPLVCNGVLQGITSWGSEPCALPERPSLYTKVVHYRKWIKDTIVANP
Format: biochemical
Settings: oligopeptide; 4 hours
Procedure: All other oligopeptides were tested as neutral compounds.

Question: For “ShRChgQ-SL-acid: oligopeptide without N-terminal blocking group, Example 1 (S[hArg][Chg]QSL-OH)”, which “Substrate cleavage by York PSA at 4 HOUR” value is on record?
Answer: 4 HOUR = 8%

Same assay, conditions: oligopeptide; PSA digestion buffer pH8.0; molar ratio to PSA 100 to 1

Question: “Ac-ANKASYQ-SL-acid: blocked oligopeptide with PSA cleavage site, Example 1 (chain 1 Ac-ANKASYQSL-OH; chain 2 Ac-ANKASYQSL-OH)” was tested. Which “Time to 50% Substrate Cleavage by York PSA” value did it give?
Answer: 135 min and 220 min

Question: Which “Time to 50% Substrate Cleavage by York PSA” value does the source give for “PEG(16)-ShRYQ-SL-acid: blocked oligopeptide with PSA cleavage site, Example 1 ({PEG(16)}-S[hArg]YQSL-OH)” here?
Answer: 40 min

Question: “(l)2,3-dihydroxypropionyl-SSSChgQ-SL-acid: blocked oligopeptide with PSA cleavage site, Example 1 ({Glyceroyl(2S)}-SSS[Chg]QSL-OH)” was tested. Which “Time to 50% Substrate Cleavage by York PSA” value did it give?
Answer: 80 min and 110 min

Question: “PEG(17)-ShRYQ-SL-acid: blocked oligopeptide with PSA cleavage site, Example 1 ({PEG(17)}-S[hArg]YQSL-OH)” was tested. Which “Time to 50% Substrate Cleavage by York PSA” value did it give?
Answer: 55 min

Question: “2,3-dihydroxypropionyl-ShRYQ-SL-acid: blocked oligopeptide with PSA cleavage site, Example 1 ({2,3‑dihydroxypropionyl}-S[hArg]YQSL-OH)” was tested. Which “Time to 50% Substrate Cleavage by York PSA” value did it give?
Answer: 35 min and 50 min

Question: How did the “Time to 50% Substrate Cleavage by York PSA” value turn out when “AchRSSChgQ-SL-acid: blocked oligopeptide with PSA cleavage site, Example 1 (Ac-[hArg]SS[Chg]QSL-OH)” was run?
Answer: 120 min

Question: How did the “Time to 50% Substrate Cleavage by York PSA” value turn out when “PEG(14)ShRYQ-SL-acid: blocked oligopeptide with PSA cleavage site, Example 1 ({PEG(14)}-S[hArg]YQSL-OH)” was run?
Answer: 40 min

Question: For “PEG(19)ShRYQ-SL-acid: blocked oligopeptide with PSA cleavage site, Example 1 ({PEG(19)}-S[hArg]YQSL-OH)”, which “Time to 50% Substrate Cleavage by York PSA” value is on record?
Answer: 60 min

Question: How did the “Time to 50% Substrate Cleavage by York PSA” value turn out when “2,3-dihydroxypropionyl-SSSChgQ-SL-acid: blocked oligopeptide with PSA cleavage site, Example 1 ({2,3‑dihydroxypropionyl}-SSS[Chg]QSL-OH)” was run?
Answer: 120 min

Question: With “(l)2,3-dihydroxypropionyl-3PAL-SSChgQ-SL-acid: blocked oligopeptide with PSA cleavage site, Example 1 ({Glyceroyl(2S)}-[3Pal]SS[Chg]QSL-OH; SMILES CC(C)C[C@H](NC(=O)[C@H](CO)NC(=O)[C@H](CCC(N)=O)NC(=O)[C@@H](NC(=O)[C@H](CO)NC(=O)[C@H](CO)NC(=O)[C@H](Cc1cccnc1)NC(=O)[C@@H](O)CO)C1CCCCC1)C(=O)O)” as the molecule, how does the “Time to 50% Substrate Cleavage by York PSA” value read?
Answer: 70 min

Question: With “2-hydroxyacetyl-hRSSYQ-SNle-acid: blocked oligopeptide with PSA cleavage site, Example 1 (Glycolyl-[hArg]SSYQS[Nle]-OH)” as the molecule, how does the “Time to 50% Substrate Cleavage by York PSA” value read?
Answer: 45 min

Question: Which “Time to 50% Substrate Cleavage by York PSA” value does the source give for “(l)2,3-dihydroxypropionyl-SSChgQ-SL-acid: blocked oligopeptide with PSA cleavage site, Example 1 ({Glyceroyl(2S)}-SS[Chg]QSL-OH)” here?
Answer: 180 min

Question: Which “Time to 50% Substrate Cleavage by York PSA” value does the source give for “2,3-dihydroxypropionyl-hSSSChgQ-SL-acid: blocked oligopeptide with PSA cleavage site, Example 1 ({2,3‑dihydroxypropionyl}-[hS]SS[Chg]QSL-OH)” here?
Answer: 160 min

Question: “2-hydroxyacetyl-ShRChgQ-SL-acid: blocked oligopeptide with PSA cleavage site, Example 1 (Glycolyl-S[hArg][Chg]QSL-OH)” was tested. Which “Time to 50% Substrate Cleavage by York PSA” value did it give?
Answer: 120 min

Question: Which “Time to 50% Substrate Cleavage by York PSA” value does the source give for “2,3-dihydroxypropionyl-ShRChgQ-SL-acid: blocked oligopeptide with PSA cleavage site, Example 1 ({2,3‑dihydroxypropionyl}-S[hArg][Chg]QSL-OH)” here?
Answer: 75 min

Question: For “PEG(18)ShRYQ-SL-acid: blocked oligopeptide with PSA cleavage site, Example 1 ({PEG(18)}-S[hArg]YQSL-OH)”, which “Time to 50% Substrate Cleavage by York PSA” value is on record?
Answer: 40 min

Question: With “PEG(2)SSSChgQ-SL-acid: blocked oligopeptide with PSA cleavage site, Example 1 ({Decanoyl(3,6,9-trioxa)}-SSS[Chg]QSL-OH)” as the molecule, how does the “Time to 50% Substrate Cleavage by York PSA” value read?
Answer: 150 min

Question: “Ac-hRASChgQ-SL-acid: blocked oligopeptide with PSA cleavage site, Example 1 (Ac-[hArg]AS[Chg]QSL-OH; SMILES CC(=O)N[C@@H](CCCCNC(=N)N)C(=O)N[C@@H](C)C(=O)N[C@@H](CO)C(=O)N[C@H](C(=O)N[C@@H](CCC(N)=O)C(=O)N[C@@H](CO)C(=O)N[C@@H](CC(C)C)C(=O)O)C1CCCCC1)” was tested. Which “Time to 50% Substrate Cleavage by York PSA” value did it give?
Answer: 50 min

Question: With “2-hydroxyacetyl-SSChgQ-SL-acid: blocked oligopeptide with PSA cleavage site, Example 1 (Glycolyl-SS[Chg]QSL-OH)” as the molecule, how does the “Time to 50% Substrate Cleavage by York PSA” value read?
Answer: 180 min

Question: For “(OH-Ac)SSSChgQ-SL-acid: 2-hydroxyacetyl blocked oligopeptide with PSA cleavage site, Example 1; blocked peptide of Example 3 Step B (Glycolyl-SSS[Chg]QSL-OH)”, which “Time to 50% Substrate Cleavage by York PSA” value is on record?
Answer: 120 min

Question: For “2,3-dihydroxypropionyl-GSSChgQ-SL-acid: blocked oligopeptide with PSA cleavage site, Example 1 ({2,3‑dihydroxypropionyl}-GSS[Chg]QSL-OH)”, which “Time to 50% Substrate Cleavage by York PSA” value is on record?
Answer: 160 min

Question: For “(2R,3S) 2,3,4-trihydroxybutanoyl-ShRChgQ-SL-acid: blocked oligopeptide with PSA cleavage site, Example 1 (X5-S[hArg][Chg]QSL-OH)”, which “Time to 50% Substrate Cleavage by York PSA” value is on record?
Answer: 90 min

Question: “PEG(15)-ShRYQ-SL-acid: blocked oligopeptide with PSA cleavage site, Example 1 ({PEG(15)}-S[hArg]YQSL-OH)” was tested. Which “Time to 50% Substrate Cleavage by York PSA” value did it give?
Answer: 40 min

Question: Which “Time to 50% Substrate Cleavage by York PSA” value does the source give for “PEG(1)-hRSSChgQ-SL-acid: blocked oligopeptide with PSA cleavage site, Example 1 ({PEG(1)}-[hArg]SS[Chg]QSL-OH)” here?
Answer: 30 min

Question: For “(d)2,3-dihydroxypropionyl-3PAL-SSChgQSL-acid: blocked oligopeptide with PSA cleavage site, Example 1 ({(d)‑2,3‑dihydroxypropionyl}-[3Pal]SS[Chg]QSL-OH)”, which “Time to 50% Substrate Cleavage by York PSA” value is on record?
Answer: 80 min

Question: For “PEG(2)-S-hRChgQ-SL-acid: blocked oligopeptide with PSA cleavage site, Example 1 ({Decanoyl(3,6,9-trioxa)}-S[hArg][Chg]QSL-OH)”, which “Time to 50% Substrate Cleavage by York PSA” value is on record?
Answer: 30 min

Question: For “2-hydroxyacetyl-hRASChgQ-SL-acid: blocked oligopeptide with PSA cleavage site, Example 1 (Glycolyl-[hArg]AS[Chg]QSL-OH; SMILES CC(C)C[C@H](NC(=O)[C@H](CO)NC(=O)[C@H](CCC(N)=O)NC(=O)[C@@H](NC(=O)[C@H](CO)NC(=O)[C@H](C)NC(=O)[C@H](CCCCNC(=N)N)NC(=O)CO)C1CCCCC1)C(=O)O)”, which “Time to 50% Substrate Cleavage by York PSA” value is on record?
Answer: 70 min

Question: For “PEG(1)-ShRYQ-SL-acid: blocked oligopeptide with PSA cleavage site, Example 1 ({PEG(1)}-S[hArg]YQSL-OH)”, which “Time to 50% Substrate Cleavage by York PSA” value is on record?
Answer: 90 min

Same assay, conditions: oligopeptide; asterisk not explained in Table 2

Question: With “2(S)2,3-dihydroxypropionyl-hRSSChgQ-SL-acid: blocked oligopeptide with PSA cleavage site, Example 1 ({2(S)‑2,3‑dihydroxypropionyl}-[hArg]SS[Chg]QSL-OH)” as the molecule, how does the “Time to 50% Substrate Cleavage by York PSA (Min), values marked *” value read?
Answer: 25* Min

Question: “AchRSSChgQ-SL-acid: blocked oligopeptide with PSA cleavage site, Example 1 (Ac-[hArg]SS[Chg]QSL-OH)” was tested. Which “Time to 50% Substrate Cleavage by York PSA (Min), values marked *” value did it give?
Answer: 45 min

Question: How did the “Time to 50% Substrate Cleavage by York PSA (Min), values marked *” value turn out when “PEG(2)-hRSSChgQ-SL-acid: blocked oligopeptide with PSA cleavage site, Example 1 ({Decanoyl(3,6,9-trioxa)}-[hArg]SS[Chg]QSL-OH)” was run?
Answer: 40* Min

Question: How did the “Time to 50% Substrate Cleavage by York PSA (Min), values marked *” value turn out when “PEG(2)-ShRYQ-SL-acid: blocked oligopeptide with PSA cleavage site, Example 1 ({Decanoyl(3,6,9-trioxa)}-S[hArg]YQSL-OH)” was run?
Answer: 35* Min

Question: Which “Time to 50% Substrate Cleavage by York PSA (Min), values marked *” value does the source give for “2-hydroxyacetyl-ShRChgQ-SL-acid: blocked oligopeptide with PSA cleavage site, Example 1 (Glycolyl-S[hArg][Chg]QSL-OH)” here?
Answer: 30 min

Question: For “PEG(1)-ShRChgQ-SL-acid: blocked oligopeptide with PSA cleavage site, Example 1 ({PEG(1)}-S[hArg][Chg]QSL-OH)”, which “Time to 50% Substrate Cleavage by York PSA (Min), values marked *” value is on record?
Answer: 120* Min

Question: “2-hydroxyacetylhRYQ-SL-acid: blocked oligopeptide with PSA cleavage site, Example 1 (Glycolyl-[hArg]YQSL-OH; SMILES CC(C)C[C@H](NC(=O)[C@H](CO)NC(=O)[C@H](CCC(N)=O)NC(=O)[C@H](Cc1ccc(O)cc1)NC(=O)[C@H](CCCCNC(=N)N)NC(=O)CO)C(=O)O)” was tested. Which “Time to 50% Substrate Cleavage by York PSA (Min), values marked *” value did it give?
Answer: 105* Min

Same assay, conditions: psa digestion buffer, pH 8

Question: For `CCCC[C@H](NC(=O)[C@H](CO)NC(=O)[C@H](CCC(N)=O)NC(=O)[C@H](CC1CCCCC1)NC(=O)[C@H](CCCCNC(=N)N)NC(C)=O)C(=O)O` [Ac-hR(CHA)Q-SNle-acid] (Ac-[hArg][Cha]QS[Nle]-OH), which “Time to 50% Substrate Cleavage by York PSA” value is on record?
Answer: 200 min

Question: How did the “Time to 50% Substrate Cleavage by York PSA” value turn out when `CCCC[C@H](NC(=O)[C@H](CO)NC(=O)[C@H](CCC(N)=O)NC(=O)[C@H](Cc1ccc(O)cc1)NC(=O)[C@H](CO)NC(=O)[C@H](CO)NC(=O)[C@H](CCCCNC(=N)N)NC(C)=O)C(=O)O` [Ac-hRSSYQ-SNle-acid] (Ac-[hArg]SSYQS[Nle]-OH) was run?
Answer: 25 min

Question: How did the “Time to 50% Substrate Cleavage by York PSA” value turn out when `CC(C)C[C@H](NC(=O)[C@H](CO)NC(=O)[C@H](CCC(N)=O)NC(=O)[C@H](Cc1ccc(O)cc1)NC(=O)[C@H](CO)NC(=O)[C@H](CO)NC(=O)[C@H](CCCCNC(=N)N)NC(=O)CO)C(=O)O` [2-hydroxyacetyl-hRSSYQ-SL-acid] (Glycolyl-[hArg]SSYQSL-OH) was run?
Answer: 35 min
